According to patent publication US20120301394A1 (published 2012):

T1: Recombinant human MMR (R&D systems) (human, UniProt P22897 19-1383)
T1 construct: Bought protein (R&D Systems #2534) coated on ELISA plates; also called hMMR; MRC1
T1 sequence: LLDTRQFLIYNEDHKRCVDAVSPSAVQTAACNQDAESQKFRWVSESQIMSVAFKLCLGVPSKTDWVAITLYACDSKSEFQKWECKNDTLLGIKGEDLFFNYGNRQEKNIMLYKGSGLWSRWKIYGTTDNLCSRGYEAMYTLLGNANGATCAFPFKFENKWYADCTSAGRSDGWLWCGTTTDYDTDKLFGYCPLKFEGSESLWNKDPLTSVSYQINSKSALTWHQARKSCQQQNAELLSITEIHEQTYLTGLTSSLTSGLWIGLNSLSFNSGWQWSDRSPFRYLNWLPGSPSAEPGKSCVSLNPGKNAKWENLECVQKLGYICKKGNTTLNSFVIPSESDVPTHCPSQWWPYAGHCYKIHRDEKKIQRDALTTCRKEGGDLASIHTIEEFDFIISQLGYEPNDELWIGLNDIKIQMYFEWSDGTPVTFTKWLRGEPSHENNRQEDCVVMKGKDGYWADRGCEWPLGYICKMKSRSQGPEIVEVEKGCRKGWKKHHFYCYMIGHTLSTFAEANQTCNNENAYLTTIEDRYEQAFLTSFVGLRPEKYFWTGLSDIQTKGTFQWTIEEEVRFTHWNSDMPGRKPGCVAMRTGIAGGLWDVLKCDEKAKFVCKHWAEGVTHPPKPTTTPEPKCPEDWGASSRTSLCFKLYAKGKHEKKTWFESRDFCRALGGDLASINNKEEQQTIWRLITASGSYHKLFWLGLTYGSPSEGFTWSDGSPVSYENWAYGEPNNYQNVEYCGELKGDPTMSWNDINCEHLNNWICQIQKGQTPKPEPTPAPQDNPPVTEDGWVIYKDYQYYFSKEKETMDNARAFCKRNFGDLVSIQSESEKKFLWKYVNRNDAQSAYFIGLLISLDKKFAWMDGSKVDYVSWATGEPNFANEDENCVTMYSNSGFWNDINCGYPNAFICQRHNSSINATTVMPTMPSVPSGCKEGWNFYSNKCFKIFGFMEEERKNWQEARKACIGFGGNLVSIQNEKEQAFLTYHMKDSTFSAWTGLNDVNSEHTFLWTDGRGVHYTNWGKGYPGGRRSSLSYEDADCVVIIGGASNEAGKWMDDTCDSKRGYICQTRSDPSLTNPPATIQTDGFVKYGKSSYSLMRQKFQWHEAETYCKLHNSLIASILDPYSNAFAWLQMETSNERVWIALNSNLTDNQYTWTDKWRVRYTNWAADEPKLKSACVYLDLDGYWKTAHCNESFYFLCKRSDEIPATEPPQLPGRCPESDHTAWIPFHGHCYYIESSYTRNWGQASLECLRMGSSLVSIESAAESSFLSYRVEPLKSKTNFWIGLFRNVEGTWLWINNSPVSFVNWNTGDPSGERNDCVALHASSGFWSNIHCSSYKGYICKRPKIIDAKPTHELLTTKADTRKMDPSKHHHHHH


Each binder was assayed against T1, Recombinant human MMR (R&D systems) (assay: PE-ELISA, periplasmic extract on coated human MMR, OD405 at least 3x over milk-blocking proteins).

| binding result | Binder |
| --- | --- |
| binds | NbhMMRm15.43 (VHH, Tested as a periplasmic extract in PE-ELISA) VHH: QVQLQESGGTLVQPGGSLRLSCAASGSTFSINNMGWYRQAPGKQRELVAGITGGNTHYADSVKGRFTISRDNAKNTMYLQMNGLKPEDTAVYYCNANWGAYWGQGTQVTVSS |
| binds | NbhMMRm16.95 (VHH, Tested as a periplasmic extract in PE-ELISA) VHH: QVQLQESGGGLVQPGGSLGLSCAASGRIASISAMGWYRQAPGKQRELVAAITGSGRTNYADSVKGRFTISRDNAKNTVYLQMNSLKPEDTAVYYCNLLMVDYGLGLGTDYWGQGTQVTVSS |
| binds | NbhMMRm11.5 (VHH, Tested as a periplasmic extract in PE-ELISA) VHH: QVQLQESGGGLVQPGGSLMLSCAASGNIFTINRMGWYRQAPGKQRELVAAITSGGNTNYADSVKGRFTISRDNAKNTVYLQMNSLKPEDTAVYYCNAAIVTMTSPYSDYWGQGTQVTVSS |
